Test results: US20250043302A1, “MUTATED HYDROXYPHENYLPYRUVATE DIOXYGENASE POLYPEPTIDE, AND CODING GENE AND USE THEREOF” (BEIJING DABEINONG BIOTECHNOLOGY CO., LTD., priority 2021, published 2025)

Tests used:
Assay type in all cases: in vivo
[1] = test system: Arabidopsis thaliana T1 plants; assay: Topramezone tolerance of transgenic Arabidopsis thaliana T1 plants (spray, bleached leaf area grade, damage score); settings: 7 DAT, Table 4; for Classification and statistics of the grade of pesticide damage: Grade 0 / Classification and statistics of the grade of pesticide damage: Grade 1 / Classification and statistics of the grade of pesticide damage: Grade 2 / Classification and statistics of the grade of pesticide damage: Grade 3: number of plants; for Scores: pesticide damage score 0-100
Summary of the method: (§1)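 Damage graded 0–3 from the proportion of bleached leaf area 7 days after spraying. Plants were glufosinate-selected T1 lines, 18 days after sowing, plus vector and wild-type controls. Rates: mesotrione 52.5–420, isoxaflutole 35–280, topramezone 25–200 g ai/ha, with water (0×).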

[2] = test system: Arabidopsis thaliana T1 plants; assay: Mesotrione tolerance of transgenic Arabidopsis thaliana T1 plants (spray, bleached leaf area grade, damage score); set-up: Scores: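 damage score 0-100 computed as Σ(N×S)/(T×M)×100 over grades 0-3 with higher meaning more damage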; settings: Arabidopsis thaliana T1 plants; for Grade 0 (classification and statistics of the grade of pesticide damage; number of plants) / Grade 1 (classification and statistics of the grade of pesticide damage; number of plants) / Grade 2 (classification and statistics of the grade of pesticide damage; number of plants) / Grade 3 (classification and statistics of the grade of pesticide damage; number of plants): 16 plants
Summary of the method: as §1

[3] = test system: Arabidopsis thaliana T1 plants; assay: Isoxaflutole tolerance of transgenic Arabidopsis thaliana T1 plants (spray, bleached leaf area grade, damage score); set-up: Scores (pesticide damage): scale not given here; settings: spray, Arabidopsis thaliana T1 plants; for Classification and statistics of the grade of pesticide damage: Grade 0 (number of plants) / Classification and statistics of the grade of pesticide damage: Grade 1 (number of plants) / Classification and statistics of the grade of pesticide damage: Grade 2 (number of plants) / Classification and statistics of the grade of pesticide damage: Grade 3 (number of plants): 16 plants
Summary of the method: as §1

[4] = isoxaflutole 35 g ai/ha (0.5x field concentration)
[5] = isoxaflutole 70 g ai/ha (1x field concentration)

B1: OsHPPDm-F383W-02: nucleotide sequence encoding Oryza sativa HPPD with F383W; vector DBN11756 (nucleic acid)
DNA: ATGCCACCCACGCCAACACCAACGGCCACCACTGGTGCCGTCTCGGCCGCGGCAGCGGCCGGTGAGAATGCTGGTTTCAGGCTAGTCGGCCACCGCCGCTTCGTGAGGGCAAATCCAAGATCTGATCGGTTCCAAGCACTTGCTTTCCACCATGTTGAGCTGTGGTGCGCTGACGCCGCTTCAGCTGCCGGGAGGTTTGCTTTTGCTTTAGGGGCGCCGCTCGCCGCAAGGAGTGATCTTTCCACCGGAAATTCTGCTCATGCTTCTCTTCTACTTAGATCAGCAAGTGTTGCATTTCTGTTCACTGCACCTTATGGCGGAGACCATGGTGTCGGGGCCGATGCTGCAACAACAGCTAGCATACCATCATTTTCTCCCGGCGCCGCAAGAAGATTTGCAGCCGATCATGGCCTGGCAGTTCATGCTGTGGCATTGAGGGTCGCCGACGCGGCTGATGCGTTCCGCGCCAGCGTGGCTGCTGGAGCTAGGCCGGCGTTCCAGCCTGCTGACCTTGGGGGTGGATTTGGATTGGCGGAGGTTGAATTATATGGTGATGTTGTGCTCCGTTTTGTTTCCCATCCAGATGGTGCTGATGCTCCATTTCTACCTGGATTTGAAGGGGTGTCAAACCCCGGCGCGGTGGATTATGGACTGCGTCGATTTGATCACGTGGTAGGTAATGTTCCTGAGTTGGCTCCCGTGGCGGCCTACATTTCAGGCTTTACTGGCTTCCATGAATTTGCCGAGTTCACCGCGGAAGATGTGGGAACTGCTGAAAGTGGATTGAACTCTGTTGTCCTGGCGAACAATGCAGAGACTGTATTGCTCCCCTTGAATGAGCCTGTGCACGGCACCAAACGGCGATCTCAAATTCAGACATACCTCGACCACCACGGGGGCCCTGGTGTTCAGCATATTGCTCTAGCCAGCGACGACGTACTGGGAACACTGAGGGAGATGAGAGCCCGTTCCGCCATGGGTGGCTTTGAGTTTCTGGCCCCTCCGCCGCCAAACTACTACGACGGCGTCAGACGGCGGGCGGGTGACGTCTTGAGTGAGGAGCAGATCAATGAATGTCAAGAACTTGGGGTTCTTGTTGATAGAGATGATCAAGGAGTGCTCCTCCAAATATTCACAAAACCTGTTGGCGACCGCCCGACCTTCTGGCTTGAAATGATCCAAAGGATCGGCTGCATGGAGAAGGATGAATCGGGCCAGGAGTACCAGAAGGGTGGGTGTGGTGGCTTTGGGAAGGGCAACTTCAGCGAGCTGTTCAAGTCAATTGAAGAATATGAAAAATCATTGGAGGCAAAGCAAGCTCCGACGGTGCAGGGAAGCTGA
modifications: OsHPPDm-F383W-02 Nucleotide Sequence
notes: vector DBN11756
Classification and statistics of the grade of pesticide damage: Grade 0 ([1]; topramezone 25 g ai/ha (1×)): 0
Classification and statistics of the grade of pesticide damage: Grade 1 ([1]; topramezone 25 g ai/ha (1×)): 3
Classification and statistics of the grade of pesticide damage: Grade 2 ([1]; topramezone 25 g ai/ha (1×)): 9
Classification and statistics of the grade of pesticide damage: Grade 3 ([1]; topramezone 25 g ai/ha (1×)): 4
Classification and statistics of the grade of pesticide damage: Grade 0 ([1]; topramezone 100 g ai/ha (4×)): 0
Classification and statistics of the grade of pesticide damage: Grade 1 ([1]; topramezone 100 g ai/ha (4×)): 0
Classification and statistics of the grade of pesticide damage: Grade 2 ([1]; topramezone 100 g ai/ha (4×)): 0
Classification and statistics of the grade of pesticide damage: Grade 3 ([1]; topramezone 100 g ai/ha (4×)): 16
Scores ([1]; topramezone 25 g ai/ha (1×)): 69
Scores ([1]; topramezone 100 g ai/ha (4×)): 100
Resistance evaluation ([1]; topramezone 25 g ai/ha (1×)): non-resistant (non-resistant plants (scores 68-100))
Resistance evaluation ([1]; topramezone 100 g ai/ha (4×)): non-resistant (non-resistant plants (scores 68-100))
Resistance evaluation ([2]; mesotrione 52.5 g ai/ha): Non-resistant
Scores ([2]; mesotrione 52.5 g ai/ha): 85
Grade 0 (classification and statistics of the grade of pesticide damage; number of plants) ([2]; mesotrione 52.5 g ai/ha): 0
Grade 1 (classification and statistics of the grade of pesticide damage; number of plants) ([2]; mesotrione 52.5 g ai/ha): 0
Grade 2 (classification and statistics of the grade of pesticide damage; number of plants) ([2]; mesotrione 52.5 g ai/ha): 7
Grade 3 (classification and statistics of the grade of pesticide damage; number of plants) ([2]; mesotrione 52.5 g ai/ha): 9
Resistance evaluation ([2]; mesotrione 105 g ai/ha): Non-resistant
Scores ([2]; mesotrione 105 g ai/ha): 100
Grade 0 (classification and statistics of the grade of pesticide damage; number of plants) ([2]; mesotrione 105 g ai/ha): 0
Grade 1 (classification and statistics of the grade of pesticide damage; number of plants) ([2]; mesotrione 105 g ai/ha): 0
Grade 2 (classification and statistics of the grade of pesticide damage; number of plants) ([2]; mesotrione 105 g ai/ha): 0
Grade 3 (classification and statistics of the grade of pesticide damage; number of plants) ([2]; mesotrione 105 g ai/ha): 16
Resistance evaluation [3, 4]: Non-resistant
Scores (pesticide damage) [3, 4]: 94
Classification and statistics of the grade of pesticide damage: Grade 0 (number of plants) [3, 4]: 0
Classification and statistics of the grade of pesticide damage: Grade 1 (number of plants) [3, 4]: 0
Classification and statistics of the grade of pesticide damage: Grade 2 (number of plants) [3, 4]: 3
Classification and statistics of the grade of pesticide damage: Grade 3 (number of plants) [3, 4]: 13
Resistance evaluation [3, 5]: Non-resistant
Scores (pesticide damage) [3, 5]: 100
Classification and statistics of the grade of pesticide damage: Grade 0 (number of plants) [3, 5]: 0
Classification and statistics of the grade of pesticide damage: Grade 1 (number of plants) [3, 5]: 0
Classification and statistics of the grade of pesticide damage: Grade 2 (number of plants) [3, 5]: 0
Classification and statistics of the grade of pesticide damage: Grade 3 (number of plants) [3, 5]: 16
